Data from US20230365705A1 (DYNAMICURE BIOTECHNOLOGY, published 2023).

Assays:
[1] = target: T1, cynomolgus CD93 protein (made in-house) (cynomolgus, UniProt A0A2K5VH53 22-580); assay: BLI (Octet QKe), biotinylated CD93 on streptavidin biosensors; table under the cynoCD93 panels
T1 construct: Biotinylated in BLI; also called cyno CD93; cynoCD93
T1 sequence: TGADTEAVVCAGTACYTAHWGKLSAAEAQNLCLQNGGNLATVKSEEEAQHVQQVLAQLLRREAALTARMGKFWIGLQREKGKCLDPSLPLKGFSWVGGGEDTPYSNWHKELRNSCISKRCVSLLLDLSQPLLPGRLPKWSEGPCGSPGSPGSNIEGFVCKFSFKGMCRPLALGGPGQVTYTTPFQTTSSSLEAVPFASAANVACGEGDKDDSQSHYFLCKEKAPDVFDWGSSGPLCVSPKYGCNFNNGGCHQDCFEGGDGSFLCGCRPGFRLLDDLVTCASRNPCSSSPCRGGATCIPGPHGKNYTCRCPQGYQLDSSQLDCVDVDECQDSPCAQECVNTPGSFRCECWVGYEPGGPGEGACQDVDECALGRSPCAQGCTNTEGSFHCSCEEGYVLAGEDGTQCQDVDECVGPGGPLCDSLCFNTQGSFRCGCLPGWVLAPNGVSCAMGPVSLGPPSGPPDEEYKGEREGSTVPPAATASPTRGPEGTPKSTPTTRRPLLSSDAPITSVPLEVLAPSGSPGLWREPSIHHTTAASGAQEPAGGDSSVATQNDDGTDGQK
Protocol: The binding affinity of anti-CD93 antibodies were determined with bio-layer interferometry using Octet QKe (Fortebio). Human CD93 recombinant protein (Sino Biological Inc, Catalog #12589-H08H) or cynomolgus CD93 protein (made in-house) were biotinylated using EZ-LINK NHS-PEG4 biotin (Thermo Fisher Scientific). Streptavidin biosensors (Fortebio) were used to load biotinylated CD93 protein (300 seconds at 5 μg/ml). The baseline was stabilized for 60 seconds in a 1× kinetics buffer (Fortebio) before serially diluted anti-CD93 antibodies were allowed to associate for 300 seconds with captured protein. The sensors were dissociated in a 1× kinetics buffer for 600 seconds.

[2] = target: T2, Human CD93 on cells (human CD93 expressing CHO cells; HUVEC, U937 and KG1a cells) (human, UniProt Q9NPY3 22-652); assay: summary table, column FACS (HUVEC cells); 4 weeks at 40 C
T2 construct: whole, on cells; also called hCD93 expressing CHO cells; hCD93 CHO cells
T2 sequence (looked up): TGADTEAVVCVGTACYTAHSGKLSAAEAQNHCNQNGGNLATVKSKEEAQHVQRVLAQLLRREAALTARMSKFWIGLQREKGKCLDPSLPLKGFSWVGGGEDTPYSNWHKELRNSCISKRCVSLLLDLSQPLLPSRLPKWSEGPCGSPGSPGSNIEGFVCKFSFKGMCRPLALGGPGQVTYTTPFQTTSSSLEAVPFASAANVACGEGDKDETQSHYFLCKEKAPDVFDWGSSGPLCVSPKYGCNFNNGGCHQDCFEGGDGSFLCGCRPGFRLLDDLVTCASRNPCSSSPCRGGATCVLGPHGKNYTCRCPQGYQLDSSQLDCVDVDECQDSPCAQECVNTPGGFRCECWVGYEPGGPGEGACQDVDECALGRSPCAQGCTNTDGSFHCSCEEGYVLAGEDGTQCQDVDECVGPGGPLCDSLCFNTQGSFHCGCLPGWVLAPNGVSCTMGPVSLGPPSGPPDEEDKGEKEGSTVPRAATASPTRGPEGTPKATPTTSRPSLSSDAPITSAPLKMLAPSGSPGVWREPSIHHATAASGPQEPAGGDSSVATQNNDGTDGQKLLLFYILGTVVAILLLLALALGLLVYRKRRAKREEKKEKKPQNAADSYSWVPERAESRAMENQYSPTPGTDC
Protocol: HUVEC cells were detached by incubation with TrypLE reagents (Thermo Fisher), which preserves the integrity of CD93 on the cell surface. Then the cells were incubated with serial diluted anti-CD93 antibodies for 30 minutes at 4° C. After washing by FACS buffer, the cells were incubated with Alexa Fluor 647 conjugated anti-human IgG (Jackson ImmunoResearch) for 30 minutes in 4° C. After washing by FACS buffer twice, the samples were acquired in NovoCyte Flow Cytometer and analyzed by NovoExpress software.

[3] = target: T3, Human CD93 recombinant protein (Sino Biological Inc, Catalog #12589-H08H) (human, UniProt Q9NPY3 22-580); assay: BLI (Octet QKe), biotinylated human CD93 on streptavidin biosensors
T3 construct: Biotinylated (EZ-LINK NHS-PEG4 biotin) in the BLI assays; also called hCD93; His-tagged human CD93
T3 sequence (looked up): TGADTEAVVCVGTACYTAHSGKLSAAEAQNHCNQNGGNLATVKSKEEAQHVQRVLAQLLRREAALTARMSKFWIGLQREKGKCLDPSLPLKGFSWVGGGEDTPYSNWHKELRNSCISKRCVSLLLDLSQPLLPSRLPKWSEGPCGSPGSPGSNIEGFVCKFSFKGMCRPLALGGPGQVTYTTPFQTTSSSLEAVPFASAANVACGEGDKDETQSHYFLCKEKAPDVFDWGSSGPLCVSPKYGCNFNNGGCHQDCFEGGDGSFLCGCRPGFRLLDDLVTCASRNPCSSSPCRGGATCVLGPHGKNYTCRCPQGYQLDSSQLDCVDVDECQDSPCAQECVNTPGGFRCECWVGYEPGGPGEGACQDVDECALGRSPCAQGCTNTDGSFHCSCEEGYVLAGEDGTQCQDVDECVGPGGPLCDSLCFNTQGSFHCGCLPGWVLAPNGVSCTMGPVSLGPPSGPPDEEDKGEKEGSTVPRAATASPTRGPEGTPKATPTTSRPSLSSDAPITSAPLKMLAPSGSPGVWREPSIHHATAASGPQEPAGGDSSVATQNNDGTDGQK
Protocol: (§1) The binding affinity of anti-CD93 antibodies was determined with bio-layer interferometry using Octet QKe (Fortebio). […] Human CD93 recombinant protein (Sino Biological Inc, Catalog #12589-H08H) was biotinylated using EZ-LINK NHS-PEG4 biotin (Thermo Fisher Scientific). Streptavidin biosensors (Fortebio) were used to load biotinylated CD93 protein (300 seconds in 5 μg/ml). Baseline was stabilized for 60 seconds in 1× kinetics buffer (Fortebio) before anti-CD93 antibodies, at a serial dilution, were allowed to associate for 300 seconds with captured protein. Then the sensors were dissociated in 1× kinetics buffer for 600 seconds. […] (FIG. 42).

[4] = target: T3, Human CD93 recombinant protein (Sino …); assay: BLI (Octet QKe), biotinylated human CD93 on streptavidin biosensors; antibody stored 4 weeks at 40 C
Protocol: as §1

B1: 16E4 (hybridoma) (antibody, IgG2a, V domains shown)
VH: QVQLQQPGAELVKPGASVKLSCKASGYTFTSYWMHWVKQRPGQGLEWIGEIDPSASYTYYNQKFKGKATLTVDKSSSTAYMQLSSLTSEDSAVYYCARSVYYGNKYFDVWGAGTTVTVSS
VL: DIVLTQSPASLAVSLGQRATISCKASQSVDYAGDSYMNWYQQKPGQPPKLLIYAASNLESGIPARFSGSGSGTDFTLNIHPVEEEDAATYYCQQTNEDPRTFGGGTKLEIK
notes: also called 16E4 mAb; 16E4 mIgG2a
- Kd [1]: 0.446 nM
- kon [1]: 663000 M⁻¹ s⁻¹

B2: h7F3 (humanized 7F3, VH3+VL3) (antibody, human IgG1, V domains shown)
VH: QVQLVQSGAEVKKPGASVKVSCKASGYTFTDYEMHWVRQAPGQGLEWMGGIDPETGDTAYNQNFKGRVTMTTDTSTSTAYMELRSLTSDDTAVYYCTNYGNLYYYAMDYWGQGTSVTVSS
VL: EIVLTQSPSSLSASVGDRVTITCRASSSVSSSYLHWYQQKPGKAPKLLIYSTSNLAFGVPSRFSGSGSGTSYTFTISSLQPEDIATYYCQQYSGYPLTFGSGTKLEIK
notes: also called humanized 7F3-hIgG1
- EC50 [2]: 1.12 nM

B3: h16E4 (humanized 16E4, VH4+VL6) (antibody, V domains shown)
VH: QVQLVQSGAEVKKPGASVKVSCKASGYTFTSYWMHWVRQAPGQGLEWMGEIDPSASYTYYNQKFKGRVTMTRDKSSSTVYMELSSLTSEDSAVYYCARSVYYGNKYFDVWGAGTTVTVSS
VL: DIQMTQSPSTLSASVGDRVTITCKASQSVDYAGDSYMNWYQQKPGKAPKLLIYAASNLESGVPSRFSGSGSGTEFTLTISSLQPDDFATYYCQQTNEDPRTFGGGTKLEIK
notes: Detected with anti-human IgG, so a human Fc
- Kd [3]: 0.416 nM
- koff [3]: 0.000104 s⁻¹
- kon [3]: 249000 M⁻¹ s⁻¹
- Kd [4]: 0.112 nM
- koff [4]: 3.24e-05 s⁻¹
- kon [4]: 289000 M⁻¹ s⁻¹
